This is an account of results in patent US20220193237A1 (Bristol-Myers Squibb, published 2022).

Changes are numbered by the printed parent chain. Names and notes keep the numbering of the source.

One may read the EC50 as the concentration that produces a half-maximal response. Read a high EC50 as a need for much substance. A word on the Kd: it is a measure of binding affinity in units of concentration. Lower therefore signals tighter binding. Broadly, the kon is the second-order rate constant of association. Read a high kon as fast association. The koff is the rate constant with which the complex falls apart. Low readings indicate a long-lived complex, high ones a short-lived complex. What is called EC50 (read off the curve) is the concentration that produces a half-maximal response. The low end stands for higher potency in that assay, the high end for lower potency in that assay.

The target of assay [1] is T1, human CTLA-4 on 58 α-β-CTLA-4/CD3 ζ cells (human; mouse (mCD3ζ)). Nature of the assay: cell-based or functional assay.
The target in assay [2] is T1, human CTLA-4 on 58 α-β-CTLA-4/CD3 ζ …. Nature of the assay: cell-based or functional assay. The source holds these as a separate data set.
Assay [3] has the same target. Nature of the assay: flow cytometry, non-fucosylated IgG1 on 58αβ-CTLA4/mCD3ζ cells, pH 6.2. As to the method: (§1) Antibodies were titrated from 100 μg/mL at a 1:4 dilution across 12 points in pH-specific buffers and incubated for 30-60 minutes. Buffers contained HBSS, 2% FBS^HI, 0.02% sodium azide, 2 mM EDTA, and sodium phosphate buffer (pH 5.4). Sodium phosphate buffer was added until desired pH was reached (7.2, 6.7, 6.2). Approximately 3e5 cells/well were tested for each cell line. […] Detection was done with a monovalent anti-hKappa secondary nanobody conjugated to Alexa647 and used at a dilution of 1:2000. Cells were fixed with BD Fix Solution I for 30 minutes prior to resuspension in pH-specific buffers and reading on the cytometer (BD Fortessa).
A general note: Flow cytometry measures light scatter and fluorescence of single cells or particles in a stream.

The target is the same in assay [4]. Nature of the assay: flow cytometry, non-fucosylated IgG1 on 58αβ-CTLA4/mCD3ζ cells, pH 6.7. On the procedure: as §1
The target is the same in assay [5]. Kind of assay: flow cytometry, non-fucosylated IgG1 on 58αβ-CTLA4/mCD3ζ cells, pH 7.2. As to the method:
as §1

Assay [6] addresses T2, monomeric human CTLA-4 (human, UniProt P16410 36-161, limits assumed).
T2 construct: Soluble monomeric analyte in SPR; also called huCTLA-4
T2 sequence: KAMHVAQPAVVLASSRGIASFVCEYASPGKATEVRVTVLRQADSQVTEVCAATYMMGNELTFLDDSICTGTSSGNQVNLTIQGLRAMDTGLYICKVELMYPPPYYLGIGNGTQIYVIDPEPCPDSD
Nature of the assay: SPR, captured Fab, pH 6.0. On the procedure: (§2) Binding of selected variants to human CTLA-4 was determined essentially as described in Example 3. […] Nomenclature and sequences for these antibodies is provided at Tables 6 and 7, and in the sequence listing as summarized at Table 8.
(§3) Monomeric human CTLA-4 was flowed as analyte with up to 2 μM top concentration. Between cycles, the capture surface was regenerated with 75 mM phosphoric acid. Experiments were run on a BIACORE® T200 instrument at 37° C. Running buffers were HEPES buffered saline for pH 7.4 experiments and Bis-Tris buffered saline for lower pH experiments. […] Double referenced sensorgrams were fitted to a 1:1 Langmuir binding model with mass transport to determine equilibrium dissociation constants (KD), as well as association (kₐ) and dissociation (kd) rate constants where appropriate.
Background: SPR reads the build-up and loss of mass on a sensor chip optically.

For assay [7], the target named is T2, monomeric human CTLA-4. Nature of the assay: SPR, captured Fab, pH 7.4. On the procedure:
as §2, §3

Assay [8] concerns the target T2, monomeric human CTLA-4. Nature of the assay: SPR, pH 6.0 and pH 7.5 (FIG. 6). On the procedure: Unless otherwise indicated, experiments were performed with a BIACORE® SPR surface plasmon resonance spectrometer (Biacore AB, Uppsala, Sweden). Antibodies were tested as monovalent Fab fragments to simplify analysis.
as §3

The target of assay [9] is T2, monomeric human CTLA-4. Kind of assay: SPR, captured Fab, pH 6.0 vs 7.4. As to the method:
as §2, §3

Assay [10] deals with T2, monomeric human CTLA-4. Kind of assay: SPR, captured Fab, pH 6.0. As to the method: (§4) See Example 3. Antibodies were tested as monovalent Fab fragments to simplify analysis.
as §3
This is another data set of the same source.

Assay [11] deals with T2, monomeric human CTLA-4. Nature of the assay: SPR, captured Fab, pH 7.4. As to the method: as §4, §3
This is another data set of the same source.

Assay [12] concerns the target T2, monomeric human CTLA-4. Kind of assay: SPR, captured Fab, pH 6.0 vs 7.4. As to the method: as §4, §3
The source holds these as a separate data set.

Assay [13] deals with T2, monomeric human CTLA-4. Nature of the assay: SPR, captured Fab, first experiment of Table 3. On the procedure: as §4, §3
Assay [14] addresses T2, monomeric human CTLA-4. Kind of assay: SPR, captured Fab, second experiment of Table 3. As to the method: as §4, §3
Assay [15] concerns the target T2, monomeric human CTLA-4. Kind of assay: SPR, captured Fab, pH 6.0, second experiment. On the procedure:
as §4, §3

The target in assay [16] is T2, monomeric human CTLA-4. Kind of assay: SPR, captured Fab, pH 7.4, second experiment. As to the method: as §4, §3
Assay [17] concerns the target T2, monomeric human CTLA-4. Nature of the assay: SPR, captured Fab, pH 6.0 vs 7.4, second experiment. As to the method:
as §4, §3

Assay [18] has as its target T1, human CTLA-4 on 58 α-β-CTLA-4/CD3 ζ …. Nature of the assay: flow cytometry (APC mean FI), Fab on 58αβ-CTLA4/mCD3ζ cells, pH 6.2. As to the method: as §1
The experimental protocol was the same as used to obtain the data of FIGS. 16A-C.

Another assay deals with T3, monomeric cyno CTLA-4 (cynomolgus macaque (Macaca fascicularis), UniProt G7PL88 36-161).
T3 construct: also called CTLA-4 from the cynomolgus macaque Macaca fascicularis
T3 sequence: T2 sequence with S14N, I18T, L106M
Nature of the assay: SPR, Fab, monomeric cyno CTLA-4 as analyte; koff (s^-1, linear axis 0 to 0.3) plotted against pH. As to the method:
The pH dependence of binding of selected antibodies of the present invention to human CTLA-4 and cyno CTLA-4 was measured by surface plasmon resonance (SPR) spectroscopy, essentially as described in Example 3. Briefly, antibodies were studied as monovalent Fab fragments. Anti-human kappa polyclonal capture antibody (Southern Biotech, Ala. USA) was immobilized on a ethylenediamine-blocked CM4 sensor chip in a Biacore T200 surface plasmon resonance system. Fab fragments of selected antibodies of the present invention were then captured on one flow cell each. […] Running buffer was 20 mM BisTris, 150 mM NaCl, 0.05% Tween-20, 1 g/L BSA, at a pH ranging from 5.5 to 7.4 in 0.1-0.2 pH unit intervals (12 total). The surface was regenerated with 1/200 H₃PO₄ between cycles. […] Where required, the Rₘₐₓ was fixed by calculating expected binding based on capture level and apparent activity from other fits for the same Fab.

B1: ipi.105, non-fucosylated IgG1 (antibody, V domains shown)
VH: QVQLVESGGGVVQPGRSLRLSCAASGFTFSHYTMHWVRQAPGKGLEWVTFISYDGHNKYYADSVKGRFTISRDNSKNTLYLQMNSLRAEDTAIYYCARTGWLGPFDYWGQGTLVTVSS
VL: EIVLTQSPGTLSLSPGERATLSCRASQEVGESELAWYQQKPGQAPRLLIYGAFSRATGIPDRFSGSGSGTDFTLTISRLEPEDFAVYYCQQYGSSPWTFGQGTKVEIKR
modifications: non-fucosylated N-linked glycan
notes: Non-fucosylated full-length human IgG1; also called Ipi.105 IgG1-NF
As for B1, in assay [1], the “IC50 (read off the curve), mIL-2 secretion, 58αβ-hCTLA/mCD3ζ:rhB7-1 blocking assay, 18 h, pH 7.0” value was about 4 nM. Besides, the “IC50 (read off the curve), mIL-2 secretion, 58αβ-hCTLA/mCD3ζ:rhB7-1 blocking assay, 18 h, pH 6.8” value in assay [2] is about 2 nM. Further, the “Cmax (MFI)” value turned out to be 107000 MFI in assay [3], 110000 MFI in assay [4] and 107000 MFI in [5]. In addition, the EC50 in assay [3] worked out at 0.0026 µM; in assay [4] it was 0.00345 µM; in assay [5], 0.00394 µM.

B2: ipi.57 Fab (Fab, V domains shown)
VH: B1 VH with H56N
VL: not shown
notes: Tested as monovalent Fab; also called HCDR1 S31H
Consider B2, for which, in the assay with monomeric human CTLA-4 [6], the Kd worked out at 0.0079 µM, the kon is 1.1e+06 M⁻¹ s⁻¹ and the “t1/2” value was 83 s. Besides, in the assay with monomeric human CTLA-4 [7], the Kd amounted to 0.028 µM, the kon was 800000 M⁻¹ s⁻¹ and the “t1/2” value came to 32 s. For the same molecule, the “CAPBP (ratio of KD normalized to ipilimumab)” value in the assay with monomeric human CTLA-4 [8] turned out to be 5.5. Moreover, in the assay with monomeric human CTLA-4 [9], the “KD 7.4/6 (APBP)” value was 3.5, the “ka 6/7.4” value stood at 1.3 and the “t1/2 6/7.4” value amounted to 2.7.

B3: ipi.17 Fab (Fab, V domains shown)
VH: B1 VH with H31S, H56N
VL: not shown
notes: Tested as monovalent Fab; also called S28E
In the assay with monomeric human CTLA-4 [10], B3 returned a Kd of 0.014 µM, a koff of 0.015 s⁻¹ and a kon of 1e+06 M⁻¹ s⁻¹. In the assay with monomeric human CTLA-4 [11], this molecule returned a Kd of 0.019 µM, a koff of 0.016 s⁻¹ and a kon of 850000 M⁻¹ s⁻¹. Also, in the assay with monomeric human CTLA-4 [6], the affinity, expressed as Kd, was 0.014 µM; the kon amounted to 1e+06 M⁻¹ s⁻¹; the “t1/2” value is 46 s. In the assay with monomeric human CTLA-4 [7], binding was put at a Kd of 0.019 µM, the kon was 850000 M⁻¹ s⁻¹ and the “t1/2” value stood at 43 s. In the assay with monomeric human CTLA-4 [12], the “KD 7.4/6 (APBP)” value worked out at 1.4, the “ka 6/7.4” value was determined as 1.2 and the “kd 7.4/6” value worked out at 1.1. Further, in the assay with monomeric human CTLA-4 [9], the “KD 7.4/6 (APBP)” value turned out to be 1.3, the “ka 6/7.4” value is 1.2 and the “t1/2 6/7.4” value came out at 1.1. The “ratio of KD (7.4/6.0) normalized to the ratio of ipilimumab” value (shortened to “ratio of KD (7.4/6.0) normalized”) with monomeric human CTLA-4 [13] was found to be 1.4.

B4: ipi.26 Fab (Fab, V domains shown)
VH: B1 VH with H31S, H56N
VL: not shown
notes: Tested as monovalent Fab
With B4, in the assay with monomeric human CTLA-4 [14], the “ratio of KD (7.4/6.0) normalized” value amounted to 4.3. Moreover, in the assay with monomeric human CTLA-4 [15], the Kd worked out at 0.0089 µM, the koff came to 0.007 s⁻¹ and the kon turned out to be 790000 M⁻¹ s⁻¹. In the assay with monomeric human CTLA-4 [16], this molecule registered a Kd of 0.03 µM, a koff of 0.012 s⁻¹ and a kon of 410000 M⁻¹ s⁻¹. Moreover, in the assay with monomeric human CTLA-4 [17], the “KD 7.4/6 (APBP)” value was determined as 3.4, the “ka 6/7.4” value was determined as 2 and the “kd 7.4/6” value was 1.7.

B5: ipi.18 Fab (Fab, V domains shown)
VH: B1 VH with H31S, H56N
VL: not shown
notes: Tested as monovalent Fab; also called S31D
In the assay with monomeric human CTLA-4 [10], B5 displayed a Kd of 0.0088 µM, a koff of 0.0093 s⁻¹ and a kon of 1.1e+06 M⁻¹ s⁻¹. In the assay with monomeric human CTLA-4 [11], this molecule gave a Kd of 0.028 µM, a koff of 0.018 s⁻¹ and a kon of 640000 M⁻¹ s⁻¹. In addition, in the assay with monomeric human CTLA-4 [6], binding was put at a Kd of 0.0088 µM, the kon amounted to 1.1e+06 M⁻¹ s⁻¹ and the “t1/2” value stood at 75 s. For the same molecule, in the assay with monomeric human CTLA-4 [7], the Kd worked out at 0.028 µM, the kon came to 640000 M⁻¹ s⁻¹ and the “t1/2” value amounted to 39 s. For the same molecule, in the assay with monomeric human CTLA-4 [12], the “KD 7.4/6 (APBP)” value was 3.2, the “ka 6/7.4” value is 1.7 and the “kd 7.4/6” value is 1.9. In the assay with monomeric human CTLA-4 [9], the “KD 7.4/6 (APBP)” value turned out to be 3.1, the “ka 6/7.4” value came to 1.7 and the “t1/2 6/7.4” value stood at 1.9. In addition, in the assay with monomeric human CTLA-4 [13], the “ratio of KD (7.4/6.0) normalized” value amounted to 3.2.

B6: ipi.105 Fab (Fab, V domains shown)
VH: B1 VH
VL: B1 VL
notes: Tested as monovalent Fab
Take B6: in the assay with monomeric human CTLA-4 [6], the Kd was found to be 0.0025 µM, the kon amounted to 1.3e+06 M⁻¹ s⁻¹ and the “t1/2” value was 217 s. This molecule also registered a Kd with monomeric human CTLA-4 [7] of 0.39 µM. For the same molecule, the “KD 7.4/6 (APBP)” value with monomeric human CTLA-4 [9] came to 76. The concentration for a half-maximal effect (EC50 (read off the curve)) in [18] was about 0.2 mg/L. For the same molecule, in the assay with monomeric cyno CTLA-4, the binding result is reported as “binds”.

B7: ipi.101 Fab (Fab, V domains shown)
VH: B1 VH
VL: not shown
notes: Tested as monovalent Fab
Take B7: in the assay with monomeric human CTLA-4 [6], the Kd amounted to 0.0015 µM, the kon stood at 1.2e+06 M⁻¹ s⁻¹ and the “t1/2” value came to 385 s. Also, in the assay with monomeric human CTLA-4 [7], the Kd turned out to be 0.045 µM, the kon came to 490000 M⁻¹ s⁻¹ and the “t1/2” value was determined as 32 s. For the same molecule, in the assay with monomeric human CTLA-4 [9], the “KD 7.4/6 (APBP)” value came out at 31, the “ka 6/7.4” value came out at 2.5 and the “t1/2 6/7.4” value was 12. For the same molecule, in [18], the “EC50 (read off the curve)” value was about 0.07 mg/L. The binding result in the assay with monomeric cyno CTLA-4 is given as “binds”.
